Paper PMC545800
No end group written: not given here.

T1: tetratricopeptide repeat (TPR) domain of S. cerevisiae PEX5 (Gal4pBD-TPR, plasmid pAH987) (S. cerevisiae)
T1 sequence (P35056 whole entry, looked up): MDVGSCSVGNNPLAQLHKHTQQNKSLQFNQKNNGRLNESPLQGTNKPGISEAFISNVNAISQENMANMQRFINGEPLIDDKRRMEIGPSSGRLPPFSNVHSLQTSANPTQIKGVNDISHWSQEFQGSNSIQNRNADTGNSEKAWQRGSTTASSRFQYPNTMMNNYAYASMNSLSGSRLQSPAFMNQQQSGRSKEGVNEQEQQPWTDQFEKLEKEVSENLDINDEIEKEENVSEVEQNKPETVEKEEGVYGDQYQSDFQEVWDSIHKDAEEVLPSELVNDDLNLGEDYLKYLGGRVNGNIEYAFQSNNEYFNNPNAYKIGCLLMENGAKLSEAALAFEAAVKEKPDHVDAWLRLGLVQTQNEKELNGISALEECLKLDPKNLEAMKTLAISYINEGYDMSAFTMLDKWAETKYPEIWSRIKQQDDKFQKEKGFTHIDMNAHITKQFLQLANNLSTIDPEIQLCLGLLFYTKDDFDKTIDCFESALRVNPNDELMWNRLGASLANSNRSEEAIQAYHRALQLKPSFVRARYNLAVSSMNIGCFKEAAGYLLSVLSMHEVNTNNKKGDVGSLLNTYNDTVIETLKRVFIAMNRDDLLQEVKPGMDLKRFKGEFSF


Experiments:
[1] = target: T1, tetratricopeptide repeat (TPR) domain of S. cerevisiae PEX5 (Gal4pBD-TPR, plasmid pAH987) (S. cerevisiae); assay: two-hybrid; yeast strain PCY3 co-transformed with Gal4pAD-16mer (pGAD.GH) and Gal4pBD-TPR of PEX5 (pAH987 yeast or hP87 human); quantitative beta-galactosidase activity, cells grown in SC-leu-trp at 30°C; lower limit of around 10 Miller Units per mg protein for a productive interaction
[2] = target: tetratricopeptide repeat (TPR) domain of human PEX5 (Gal4pBD-TPR, plasmid hP87) (Homo sapiens); assay: as above

beta-galactosidase activity (Units/mg protein) [1]	beta-galactosidase activity (Units/mg protein) [2]	Molecule
482		carboxy-terminal 16-mer of yeast mitochondrial ribosomal protein L2, or MRP7 (Gal4pAD-16mer) (peptide)
	91	LLMEAEDYQATYQSNL [carboxy-terminal 16-mer of frog tyrosinase (Gal4pAD-16mer)]
206		EEVIRKIAEGLNKAKF (not fully specified (N-terminus)) [carboxy-terminal 16-mer of Archaeoglobus fulgidus 2-nitropropane dioxygenase (Gal4pAD-16mer)]
270	473	DINNTIDAARRVFAKL (not fully specified (N-terminus)) [carboxy-terminal 16-mer of Escherichia coli glutamate-1-semialdehyde 2,1-aminomutase (Gal4pAD-16mer)]
45	358	GMGRREGHPDVGPARL [carboxy-terminal 16-mer of Methanopyrus kandleri riboflavin synthase (Gal4pAD-16mer)]
195		EKGIKYKFEVYEKSKL [carboxy-terminal 16 residues of the DHFR-SKL construct (Gal4pAD-16mer)]
	242	LLMEKEDYHSLYQSHL [carboxy-terminal 16-mer of human tyrosinase (Gal4pAD-16mer)]
	25	HCKGKDLSKYLASCNL [carboxy-terminal 16-mer of dog lysozyme C from milk (Gal4pAD-16mer)]
	73	RCKGTDVQAWIRGCRL [carboxy-terminal 16-mer of hen egg-white lysozyme (Gal4pAD-16mer)]
164	566	FAVDQRKLEDLLAAKL [carboxy-terminal 16-mer of E. coli transaldolase A (Gal4pAD-16mer)]
	29	PLKDKQLYANEGVSRL (not fully specified (N-terminus)) [carboxy-terminal 16-mer of Drosophila sevenless protein (Gal4pAD-16mer)]
	310	FDRDQNRVGLAEAARL (not fully specified (N-terminus)) [carboxy-terminal 16-mer of the precursor of lysosomal bovine cathepsin D (Gal4pAD-16mer)]
